Measured values from PMC6368601.

Biological target: taxol-stabilized microtubules polymerized from bovine brain tubulin dimers (bovine) (UniProt Q6B856)
Experiment: co-sedimentation; 100 nM ISB (WT, MTBM or Δ20) with various concentrations of taxol-stabilized microtubules; BRB80, 1 mM DTT, 50 mM NaCl, 20 uM paclitaxel; 15 min at room temperature; 50% glycerol cushion, 279,000 x g; blot with anti-Borealin; apparent Kd from a one-site specific binding fit of three experiments

“ISB^MTBM: INCENP^1-58-Survivin-Borealin(R17E, R19E, K20E) complex (from UniProt Q9NQS7 1-58; O15392 1-142; Q53HL2 1-280)” showed a Kd of 4.2 µM.
